By Kd is commonly meant the constant that tells how readily two partners part at equilibrium. A low value points to tighter binding. One may read the t½ as the time needed for the level to fall by half in the phase considered. A lower t½ goes with rapid decline. The term koff denotes the rate constant with which the complex falls apart. Low values mean a long-lived complex, high ones a short-lived complex. Usually kon stands for the second-order rate constant of association. A high value points to faster complex formation.

Positions count from the first letter of the chain named.

Consider 21 molecules from patent US20240043504A1 (published 2024).

The target in assay [1] is SARS-COV-2 RBD extracellular domain expressed with a C-terminal mouse IgG2a (SARS-CoV-2). Kind of assay: SPR Biacore, mAb captured via anti-hFc, 25 C.
Assay [2] addresses SARS-COV-2 RBD extracellular domain expressed with a C-terminal mouse IgG2a (SARS-COV-2 RBD-mFc) (SARS-CoV-2). Put plainly: SPR, captured mAb, RBD-mFc in solution, 37 C. In general terms: In SPR one partner is held on a chip, and binding of the other changes the refractive index at the surface.

B1: mAb11002 (antibody, V domains shown)
VH: EVQLVESGGGLVQPGGSLRLSCAASGFTVSSNYMSWVRQAPGKGLEWVSVIYSGGSTFYADSVKGRFTISRHNSKNTLYLQMNSLRAEDTAVYYCAREGYGMDVWGQGTTVTVSS
VL: not shown
On to B1, for which, in assay [1], the dissociation constant Kd came out at 4.46 nM and the “t½” value turned out to be 0.0783 h.

B2: mAb11004 (antibody, V domains shown)
VH: QVQLVESGGGVVQPGRSLRLSCVASGFTFSIYGMDWVRQAPGKGLEWVAVISYDGSNKYYADSVKGRFTISRDNSKNTLYLQMNSLRPEDTAVYYCAKDREAAADAFDIWGQGTMVTVSS
VL: DIQMTQSPSSVSASVGDRVTITCRASQGISSWLAWYQQKPGKAPKLLIYAASSLHSGVPSRFSGSGSGTDFTLTISSLQPEDFATYYCQQANSFRLTFGGGTKVEIKR
Take B2: in assay [1], binding was put at a Kd of 0.0921 nM, the off-rate constant (koff) was found to be 6.4e-05 s⁻¹, the kon came out at 695000 M⁻¹ s⁻¹ and the “t½” value turned out to be 3.01 h.

B3: mAb10984 (antibody, V domains shown)
VH: EVQLVESGGGLVQPGGSLRLSCAASGLTVNRNYMSWVRQAPGKGLEWVSLIYSGGSTYYADSVKGRFTISRDNSKNTLYLQMNSLRLEDTAVYYCARGELGIPYGMDVWGQGTTVTVSS
VL: QSVLTQPPSVSAAPGQKVTISCSGSSSNIGNNYVSWYQQLPGTAPKLLIYDNNKRPSGIPDRFSGSKSGTSATLGITGLQTGDEADYYCGTWDSSLSAGVFGGGTKLTVLG
Regarding B3, in assay [1], the dissociation constant (Kd) was determined as 0.0286 nM and the “t½” value worked out at 4.85 h.

B4: mAb10923 (antibody, V domains shown)
VH: QVQLVQSGAEVKKPGASVKVSCKASGYTFINYYIHWVRQAPGQGLEWMGWINPNSGGTNYAQKFQGRVTMTRDTSISTAYMELSRLRSDDTAVYYCAIITIFGVVTWFDPWGQGTLVTVSS
VL: not shown
For the molecule B4, in assay [2], binding was put at a Kd of 0.0336 nM, the koff is 0.000185 s⁻¹, the on-rate constant (kon) came to 5.53e+06 M⁻¹ s⁻¹ and the “t½” value is 1.04 h.

B5: mAb10971 (antibody, V domains shown)
VH: EVQLVESGGGLIQPGGSLRLSCAASGVTVSSNYMSWVRQAPGKGLEWVSVIYSGGSTFYSDSVKGRFSISRDNSKNTLYLQMNSLRAEDTAVYYCARDLYYYGMDVWGQGTTVTVSS
VL: DIQLTQSPSFLSASVGDRVTITCRASQGISTYLAWYQQKPGKAPKLLIYAASTLQSGVPSRFSGSGSGTEFTLTISSLQPEDFATYYCQQLDSYPGLTFGGGTKVEIKR
In the case of B5, in assay [1], binding was put at a Kd of 0.0292 nM, the off-rate constant (koff) was 4.09e-05 s⁻¹, the kon came out at 1.4e+06 M⁻¹ s⁻¹ and the “t½” value was 4.71 h.

B6: mAb10920 (antibody, V domains shown)
VH: QVQLVESGGGVVQPGRSLRLSCAASGFTFSYYGMHWVRQAPGKGLEWVAVIWYDGSNKFYADSVKGRFTISRDNSKNTLYLQMNSLRAEDTAVYYCAAARPGYYYGMDVWGQGTTVTVSS
VL: DIQMTQSPSSLSASVGDRVTITCRASQGISNYLAWFQQKPGKAPNSLIYAASSLQRGVPSKFSGSGSGTDFTLTISSLQPEDFATYYCQQYNSYPRTFGQGTKVEIKR
For B6, in assay [2], the dissociation constant Kd was determined as 0.119 nM and the “t½” value came to 0.255 h.

B7: mAb10921 (antibody, V domains shown)
VH: EVQLVESGGGLVQPGGSLRLSCAASGITVSSNYMSWVRQAPGKGLEWVSVIYSGGSTFYADSVKGRFTISRHNSKNTLYLQMNSLRAEDTAVYYCARERNFDAFDIWGQGTMVTVSS
VL: DIQMTQSPSSVSASVGDRVTITCRASQGISSWLAWYQQKPGKAPKLLIYAASSLQSGVPSRFSGSGSGTDFTLTISSLQPEDFATYYCQQANSFPLFTFGPGTKVDIKR
Consider B7, for which, in assay [2], binding was characterised by a dissociation constant (Kd) of 0.273 nM, the koff was found to be 0.000125 s⁻¹, the kon was 458000 M⁻¹ s⁻¹ and the “t½” value amounted to 1.54 h.

B8: mAb10934 (antibody, V domains shown)
VH: not shown
VL: DIQMTQSPSSLSASVGDRVTITCQASQDIWNYINWYQQKPGKAPKLLIYDASNLKTGVPSRFSGSGSGTDFTFTISSLQPEDIATYYCQQHDDLPPTFGQGTKVEIKR
With B8, in assay [2], the equilibrium dissociation constant (Kd) worked out at 0.0216 nM and the “t½” value was 0.657 h.

B9: mAb11010 (antibody, V domains shown)
VH: QVQLVESGGGVVQPGRSLRLSCAASGFTFSSYGMHWVRQAPGKGLEWVAVISYDGSYKYYADSVKGRFTISRDNSKNTLYLQMNSLRAEDTAVYYCAIDGGTVTTIFDYWGQGTLVTVSS
VL: not shown
As to B9, in assay [1], the Kd stood at 0.0789 nM and the “t½” value amounted to 2.14 h.

B10: mAb10982 (antibody, V domains shown)
VH: EVQLVESGGGLVQPGGSLRLSCAASGLTVSSNYMSWVRQAPGKGLEWVSVIYSGGTTYYADSVKGRFTISRHNSKNTLSLQMNSLRAEDTAVYYCARGEGANYYGMDVWGQGTTVTVSS
VL: QSVLTQPPSVSGAPGQRVTISCTGSSSNIGTGYDVHWYQQLPGTAPKLLIYGNSNRPSGVPDRFSGSKSGTSASLAITGLQAEDEADYYCQSYDSSLSGYVVFGGGTKLTVLG
As for B10, in assay [1], the Kd worked out at 0.0886 nM, the koff amounted to 8.06e-05 s⁻¹, the kon worked out at 910000 M⁻¹ s⁻¹ and the “t½” value is 2.39 h.

B11: mAb10985 (antibody, V domains shown)
VH: EVQLVESGGGLVQPGRSLRLSCAASGFTFDDYAMHWVRQAPGKGLEWVSGISWNRGSIGYADSVKGRFTISRDNAKNSLYLQMSSLRAEDTALYYCAKDGERWDSVVVPSARNGMDVWGQGTTVTVSS
VL: B10 VL with T31A, Y100S, V101Y, G105T, L109V
Consider B11, for which, in assay [1], the Kd turned out to be 0.0105 nM and the “t½” value came out at 2.26 h.

B12: mAb10986 (antibody, V domains shown)
VH: EVQLVESGGGLVQPGGSLRLSCAASEFTVSSNYMSWVRQAPGKGLEWVSVIYSGGSTFYADSVKGRFTISRDNSKNTLYLQMNSLRAEDTAVYYCARALPYGDLHFDYWGQGTLVTVSS
VL: B10 VL with S54T, G99D, Y100S, V101Y, G105T, L109V
For B12, in assay [1], the affinity, expressed as Kd, was 0.00888 nM and the “t½” value stood at 8.02 h.

B13: mAb10930 (antibody, V domains shown)
VH: EVQLVESGGGLVQPGRSLRLSCAASGFTFDDYAMYWVRQAPGKGLEWVSGISWNSGSIGYADSVKGRFTISRDNAKNSLYLQMNSLRAADTALYYCAKDKDWNSRGYYYYGMDVWGQGTTVTVSS
VL: not shown
Consider B13, for which, in assay [2], the affinity, expressed as Kd, was 0.399 nM; the koff worked out at 0.000597 s⁻¹; the kon worked out at 1.49e+06 M⁻¹ s⁻¹; the “t½” value was found to be 0.322 h.

B14: mAb10998 (antibody, V domains shown)
VH: EVQLVESGGGLVHPGGSLRLSCAASGLTVSSNYMSWVRQAPGKGLEWVSVIYSGGSTYYADSVKGRFTISRHNSKNTLFLQMNSLRAEDTAVYYCARDRPITGTTLDVWGQGTTVTVSS
VL: DIQMTQSPSSLFASVGDRVTITCRASQSISSYLNWYQQKPGKAPKLLIYAASSLQSGVPSRFSGSGSGTDFTLTISSLQPEDFAFYYCQQTYSTPPITFGQGTRLEIKR
Turning to B14, in assay [1], binding was characterised by a dissociation constant (Kd) of 2.44 nM, the off-rate (koff) was 0.00358 s⁻¹, the kon is 1.47e+06 M⁻¹ s⁻¹ and the “t½” value is 0.0533 h.

B15: mAb10989 (antibody, V domains shown)
VH: QVQLVQSGAEVKKPGASVKVSCKASGYIFTGYYMHWVRQAPGQGLEWMGWINPNSGGANYAQKFQGRVTLTRDTSITTVYMELSRLRFDDTAVYYCARGSRYDWNQNNWFDPWGQGTLVTVSS
VL: QSALTQPASVSGSPGQSITISCTGTSSDVGTYNYVSWYQQHPGKAPKLMIFDVSNRPSGVSDRFSGSKSGNTASLTISGLQAEDEADYYCSSFTTSSTVVFGGGTKLTVLG
For B15, in assay [1], binding was put at a Kd of 0.00895 nM and the “t½” value is 2 h.

B16: mAb11006 (antibody, V domains shown)
VH: EVQLVESGGGLVQPGGSLRLSCAASGFIVSRNYMSWVRQAPGKGLEWVSVIYSGGSTFYADSVKGRFTISRHNSKNTLYLQMNSLKAEDTAVYYCARELRGYFDYWGQGTLVTVSS
VL: DIQLTQSPSFLSASVGDRVTITCWASQGISSYLAWYQQKPGKAPKLLIYAASTLQSGVPSRFSGSGSGTEFTLTISSLQPEDFATYYCQLLNSYPYTFGQGTKLEIKR
On to B16, for which, in assay [1], the affinity, expressed as Kd, was 0.158 nM and the “t½” value was determined as 3.69 h.

B17: mAb11008 (antibody, V domains shown)
VH: EVQLVESGGGLVQPGGSLRLSCAASGFTVSSNYMTWVRQAPGKGLEWVSVIYSGGSTFYADSVKGRFTISRHNSENTLYLQMNSLRAEDTAVYYCARDLAAAGTDYWGQGALVTVSS
VL: B16 VL with E81D, L90H, P95L
With B17, in assay [1], the Kd was found to be 0.492 nM, the off-rate (koff) was found to be 0.000192 s⁻¹, the association rate constant (kon) turned out to be 390000 M⁻¹ s⁻¹ and the “t½” value was determined as 1 h.

B18: mAb10915 (antibody, V domains shown)
VH: B16 VH with I28T, R31S, S35N, K86R, A87P, E98D, R100G
VL: not shown
In the case of B18, in assay [2], binding was characterised by a dissociation constant (Kd) of 0.156 nM and the “t½” value turned out to be 2.79 h.

B19: mAb10914 (antibody, V domains shown)
VH: EVQLVESGGGLVQPGGSLRLSCAASGLIVSRNYMIWVRQAPGKGLEWVSVIYSGGSTFYADSVKGRFTISRHNSKNTLYLQMNSLRAEDTAVYYCARDLGTGGMDVWGQGTTVTVSS
VL: B16 VL with L90Q, Y96L, Q100G, L104V
As to B19, in assay [2], the Kd worked out at 0.318 nM and the “t½” value is 0.875 h.

B20: mAb10913 (antibody, V domains shown)
VH: EVQLVESGGGLVQPGGSLRLSCAASGFTFRNYEMNWVRQAPGKGLEWVSYITSSGSTMYYADSVKGRFTISRDNAKNSLYLQMNSLRAEDTAVYYCARDGFYYYYAMDVWGQGTTVTVSS
VL: QSVLTQPPSVSAAPGQKVTISCSGSSSNIGNNYVSWYQQLPGTAPKLLIYDNNKRPSGIPDRFSGSKSGTSATLGITGLQTGDEADYYCGTWDSSLSVGRVFGTGTKVTVLG
On to B20, for which, in assay [2], the dissociation constant Kd is 0.274 nM, the koff worked out at 0.00173 s⁻¹, the kon was found to be 6.32e+06 M⁻¹ s⁻¹ and the “t½” value worked out at 0.112 h.

B21: mAb10932 (antibody, V domains shown)
VH: EVQLVESGGGLVQSGGSLRLSCAASGLTVSSNYMSWVRQAPGKGLEWVSVIYSGGSTFYSDSVKGRFTISRHNSKNTLYLQMNSLRAEDTAVYYCARARGDAFDIWGQGTMVTVSS
VL: not shown
On to B21, for which, in assay [2], the Kd came out at 0.153 nM, the koff stood at 6.86e-05 s⁻¹, the kon came to 448000 M⁻¹ s⁻¹ and the “t½” value is 2.81 h.
